Columns and labels:
Oc1ccccc1O = assay: purified protein; details: 50 mM Tris-HCl pH 7.5, 37 °C, 20 min, catechol 0-200 µM, substrate O2 from air
[1] = biological target: Catechol 1,2-dioxygenase from Paracoccus sp. MKU1 (Paracoccus sp. MKU1); assay: SEC; purified C12O on Sephacryl S-300 HR, 50 mM Tris-HCl pH 8.5, 1 ml/min, A280; calibrated with NativeMark standards (20-1,236 kDa)

Substance	Km (Oc1ccccc1O) [µM]	kcat (Oc1ccccc1O) [s⁻¹]	stoichiometry N [1]
Catechol 1,2-dioxygenase (C12O) (Paracoccus sp. MKU1)	12.89	199.5	
Catechol 1,2-dioxygenase from Paracoccus sp. MKU1 (enzyme)			3
